Measured values taken from patent US20160130315A1 (AJOU UNIVERSITY INDUSTRY ACADEMIC COOPERATION FOUNDATION, published 2016).
Like-named read-outs stand apart in the source and are kept apart here.

Key:
[1] = target: T1, b1b2 domains (273-586) of neuropilin-1 (UniProt O14786 273-586); experiment: SPR Biacore 2000, NRP b1b2 on CM5 chip
T1 construct: range 273-586; Purified soluble domain; No tag described; also called NRP1-b1b2; NRP-1 b1b2
Method: (§1) Specifically, each b1b2 domain of neuropilin-1 and -2 was diluted with 10 mM Na-acetate buffer (pH 4.0), and fixed onto CM5 sensor chips (GE healthcare, USA) in about 1000 response units (RU). […] After bond and dissociation analysis, the regeneration of CM5 chip was performed by streaming a buffer (20 Mm NaOH, 1 M NaCl, pH 10.0) at a stream velocity 30 μl/min for 1 minute.

[2] = target: T2, b1b2 domains (275-595) of neuropilin-2 (UniProt O60462 275-595); experiment: SPR Biacore 2000, NRP b1b2 on CM5 chip
T2 construct: range 275-595; Purified soluble domain; also called NRP2-b1b2; NRP-2 b1b2
T2 sequence (looked up): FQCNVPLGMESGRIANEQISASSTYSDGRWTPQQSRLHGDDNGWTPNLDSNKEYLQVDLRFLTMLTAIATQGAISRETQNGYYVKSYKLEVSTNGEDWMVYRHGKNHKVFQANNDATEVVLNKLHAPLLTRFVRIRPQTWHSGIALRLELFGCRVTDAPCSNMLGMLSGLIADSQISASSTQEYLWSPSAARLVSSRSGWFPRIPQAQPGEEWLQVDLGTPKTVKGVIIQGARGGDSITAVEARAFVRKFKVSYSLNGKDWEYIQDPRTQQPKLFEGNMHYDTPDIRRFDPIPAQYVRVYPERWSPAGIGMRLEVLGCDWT
Method: as §1

[3] = target: T1, b1b2 domains (273-586) of neuropilin-1; experiment: SPR Biacore 2000, NRP b1b2 on CM5 chip; remark: listed apart in the source
Method: as §1

[4] = target: T2, b1b2 domains (275-595) of neuropilin-2; experiment: SPR Biacore 2000, NRP b1b2 on CM5 chip; remark: listed apart in the source
Method: as §1

[5] = target: T1, b1b2 domains (273-586) of neuropilin-1; experiment: competition ELISA on plate-bound NRP1-b1b2: VEGF165 titrated against Fc-15A22P (30 nM), absorbance at 405 nm [left panel Fc-15A22P]
Method: (§2) Specifically, b1b2 domains (273-586) of neuropilin-1 and b1b2 domains (275-595) of neuropilin-2 were bound in 96-well EIA/RIA plates (COSTAR Corning In., USA) at room temperature for 1 hour, and then washed three times for 10 minutes with 0.1% PBST (0.1% Tween20, pH 7.4, 137 mM NaCl, 10 mM Phosphate, 2.7 mM KCl, SIGMA-ALDRICH co., USA). After binding for 1 hour with 5% skim milk (pH 7.4, 137 mM NaCl, 10 mM Phosphate, 2.7 mM KCl, SIGMA-ALDRICH co., USA), it was washed three times for 10 minutes with 0.1% PBST (0.1% Tween20, pH 7.4, 137 mM NaCl, 10 mM Phosphate, 2.7 mM KCl, SIGMA-ALDRICH co., USA).

[6] = target: T1, b1b2 domains (273-586) of neuropilin-1; experiment: competition ELISA on plate-bound NRP1-b1b2: VEGF165 titrated against Fc-15F22P (30 nM), absorbance at 405 nm [right panel Fc-15F22P]
Method: as §2

[7] = target: T1, b1b2 domains (273-586) of neuropilin-1; experiment: competition ELISA on plate-bound NRP1-b1b2: Sema3A titrated against Fc-15A22P (30 nM), absorbance at 405 nm [left panel Fc-15A22P]
Method: as §2

[8] = target: T1, b1b2 domains (273-586) of neuropilin-1; experiment: competition ELISA on plate-bound NRP1-b1b2: Sema3A titrated against Fc-15F22P (30 nM), absorbance at 405 nm [right panel Fc-15F22P]
Method: as §2

Fc = target: T3, Fc (human, UniProt P01857-1 104-330 = IgG part, limits assumed); experiment: FACS on cells carrying neuropilin-1 and -2
T3 construct: domain: Fc (hinge-CH2-CH3); Control without TPP; also called control group Fc; antibody heavy-chain constant region

T1 sequence (O14786 273-586 limits assumed, form in doubt): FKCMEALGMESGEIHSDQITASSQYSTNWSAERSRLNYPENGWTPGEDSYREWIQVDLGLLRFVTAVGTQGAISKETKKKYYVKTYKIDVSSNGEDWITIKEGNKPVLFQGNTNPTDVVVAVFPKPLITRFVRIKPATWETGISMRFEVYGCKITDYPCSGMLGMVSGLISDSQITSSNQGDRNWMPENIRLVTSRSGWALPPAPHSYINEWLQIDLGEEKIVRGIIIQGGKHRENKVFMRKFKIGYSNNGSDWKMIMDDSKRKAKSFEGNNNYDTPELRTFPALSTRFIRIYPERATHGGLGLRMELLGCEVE

B1: VEGF165A (ligand, UniProt P15692-4 27-191, looked up)
chain: APMAEGGGQNHHEVVKFMDVYQRSYCHPIETLVDIFQEYPDEIEYIFKPSCVPLMRCGGCCNDEGLECVPTEESNITMQIMRIKPHQGQHIGEMSFLQHNKCECRPKKDRARQENPCGPCSERRKHLFVQDPQTCKCSCKNTDSRCKARQLELNERTCRCDKPRR
notes: Control ligand; biotinylated in the ELISA; also called vascular endothelial cell growth factor-A
Kd [1]: 3.51 nM
koff [1]: 0.00342 s⁻¹
kon [1]: 975000 M⁻¹ s⁻¹
Kd [2]: 32 nM
koff [2]: 0.00373 s⁻¹
kon [2]: 117000 M⁻¹ s⁻¹
Kd [3]: 3.51 nM
koff [3]: 0.00342 s⁻¹
kon [3]: 975000 M⁻¹ s⁻¹
Kd [4]: 32 nM
koff [4]: 0.00373 s⁻¹
kon [4]: 117000 M⁻¹ s⁻¹
IC50 (read off the curve) [5]: ~3 nM
IC50 (read off the curve) [6]: ~2 nM

B2: Sema3A (26-760) (ligand, UniProt Q14563 26-760, looked up)
chain: KNNVPRLKLSYKEMLESNNVITFNGLANSSSYHTFLLDEERSRLYVGAKDHIFSFDLVNIKDFQKIVWPVSYTRRDECKWAGKDILKECANFIKVLKAYNQTHLYACGTGAFHPICTYIEIGHHPEDNIFKLENSHFENGRGKSPYDPKLLTASLLIDGELYSGTAADFMGRDFAIFRTLGHHHPIRTEQHDSRWLNDPKFISAHLISESDNPEDDKVYFFFRENAIDGEHSGKATHARIGQICKNDFGGHRSLVNKWTTFLKARLICSVPGPNGIDTHFDELQDVFLMNFKDPKNPVVYGVFTTSSNIFKGSAVCMYSMSDVRRVFLGPYAHRDGPNYQWVPYQGRVPYPRPGTCPSKTFGGFDSTKDLPDDVITFARSHPAMYNPVFPMNNRPIVIKTDVNYQFTQIVVDRVDAEDGQYDVMFIGTDVGTVLKVVSIPKETWYDLEEVLLEEMTVFREPTAISAMELSTKQQQLYIGSTAGVAQLPLHRCDIYGKACAECCLARDPYCAWDGSACSRYFPTAKRRTRRQDIRNGDPLTHCSDLHHDNHHGHSPEERIIYGVENSSTFLECSPKSQRALVYWQFQRRNEERKEEIRVDDHIIRTDQGLLLRSLQQKDSGNYLCHAVEHGFIQTLLKVTLEVIDTEHLEELLHKDDDGDGSKTKEMSNSMTPSQKVWYRDFMQLINHPNLNTMDEFCEQVWKRDRKQRRQRPGHTPGNSNKWKHLQENKKGRNRR
notes: range 26-760; Control ligand; Biotinylated in the ELISA; also called Semaphorin3A; Semaphorin 3A
IC50 (read off the curve) [7]: ~20 nM
IC50 (read off the curve) [8]: ~20 nM

B3: neuropilin-2 expressed on cell surface (receptor, human, UniProt O60462 21-931, looked up)
chain: RGQPDPPCGGRLNSKDAGYITSPGYPQDYPSHQNCEWIVYAPEPNQKIVLNFNPHFEIEKHDCKYDFIEIRDGDSESADLLGKHCGNIAPPTIISSGSMLYIKFTSDYARQGAGFSLRYEIFKTGSEDCSKNFTSPNGTIESPGFPEKYPHNLDCTFTILAKPKMEIILQFLIFDLEHDPLQVGEGDCKYDWLDIWDGIPHVGPLIGKYCGTKTPSELRSSTGILSLTFHTDMAVAKDGFSARYYLVHQEPLENFQCNVPLGMESGRIANEQISASSTYSDGRWTPQQSRLHGDDNGWTPNLDSNKEYLQVDLRFLTMLTAIATQGAISRETQNGYYVKSYKLEVSTNGEDWMVYRHGKNHKVFQANNDATEVVLNKLHAPLLTRFVRIRPQTWHSGIALRLELFGCRVTDAPCSNMLGMLSGLIADSQISASSTQEYLWSPSAARLVSSRSGWFPRIPQAQPGEEWLQVDLGTPKTVKGVIIQGARGGDSITAVEARAFVRKFKVSYSLNGKDWEYIQDPRTQQPKLFEGNMHYDTPDIRRFDPIPAQYVRVYPERWSPAGIGMRLEVLGCDWTDSKPTVETLGPTVKSEETTTPYPTEEEATECGENCSFEDDKDLQLPSGFNCNFDFLEEPCGWMYDHAKWLRTTWASSSSPNDRTFPDDRNFLRLQSDSQREGQYARLISPPVHLPRSPVCMEFQYQATGGRGVALQVVREASQESKLLWVIREDQGGEWKHGRIILPSYDMEYQIVFEGVIGKGRSGEIAIDDIRISTDVPLENCMEPISAFAGENFKVDIPEIHEREGYEDEIDDEYEVDWSNSSSATSGSGAPSTDKEKSWLYTLDPILITIIAMSSLGVLLGATCAGLLLYCTCSYSGLSSRSCTTLENYNFELYDGLKHKVKMNHQKCCSEA
notes: whole, on cells; Endogenous expression; the same cells also carry neuropilin-1; also called NRP2
binding result (Fc): no binding (tested: 1 µM)
